Laboratory results published in patent publication US20030158387A1 (PHARIS BIOTEC, published 2003).
Where two headings read alike, the source gives them in different places. *: point of attachment. Nonanoyl = CCCCCCCCC(=O)*

T1: chemokine receptor CCR3 (UniProt P51677 1-355, limits assumed)
T1 construct: whole, on cells
T1 sequence (looked up): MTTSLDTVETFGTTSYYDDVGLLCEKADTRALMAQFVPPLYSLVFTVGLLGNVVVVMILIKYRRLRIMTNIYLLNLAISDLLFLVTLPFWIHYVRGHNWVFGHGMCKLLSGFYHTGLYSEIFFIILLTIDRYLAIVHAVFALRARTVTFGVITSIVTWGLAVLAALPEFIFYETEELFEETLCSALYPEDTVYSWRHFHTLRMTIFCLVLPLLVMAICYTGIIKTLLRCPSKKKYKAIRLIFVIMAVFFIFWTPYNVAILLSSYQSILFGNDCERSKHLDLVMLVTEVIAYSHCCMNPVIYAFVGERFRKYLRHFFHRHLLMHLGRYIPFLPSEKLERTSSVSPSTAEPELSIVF

B1: HCC-1, residues 6-74 (ligand)
chain: SSRGPYHPSECCFTYTTYKIPRQRIMDYYETNSQCSKPGIVFITKRGHSVCTNPSDKWVQDYIKDMKEN
notes: also called HCC-1[6-74]
B2: HCC-1[10-74] (ligand)
chain: PYHPSECCFTYTTYKIPRQRIMDYYETNSQCSKPGIVFITKRGHSVCTNPSDKWVQDYIKDMKEN
notes: Synthetic, oxidatively folded
B3: NNY-HCC-1[10-74] (nonanoyl-HCC-1[10-74]) (ligand)
chain: Nonanoyl-PYHPSECCFTYTTYKIPRQRIMDYYETNSQCSKPGIVFITKRGHSVCTNPSDKWVQDYIKDMKEN
modifications: ends and bridges not checked
notes: Chemokine compound analog, synthetic
B4: HCC-1[7-74] (ligand)
chain: SRGPYHPSECCFTYTTYKIPRQRIMDYYETNSQCSKPGIVFITKRGHSVCTNPSDKWVQDYIKDMKEN
notes: Synthetic, oxidatively folded
B5: HCC-1[12-74] (ligand)
chemokine chain: HPSECCFTYTTYKIPRQRIMDYYETNSQCSKPGIVFITKRGHSVCTNPSDKWVQDYIKDMKEN
notes: Not in the list MOLECULES; also called PHC-2
B6: HCC-1[11-74] (ligand)
chain: YHPSECCFTYTTYKIPRQRIMDYYETNSQCSKPGIVFITKRGHSVCTNPSDKWVQDYIKDMKEN
notes: Synthetic, oxidatively folded
B7: HCC-1[8-74] (ligand)
chain: RGPYHPSECCFTYTTYKIPRQRIMDYYETNSQCSKPGIVFITKRGHSVCTNPSDKWVQDYIKDMKEN
notes: Synthetic, oxidatively folded
B8: processed human chemokine PHC-1 (HCC-1[9-74]) (ligand)
chain: GPYHPSECCFTYTTYKIPRQRIMDYYETNSQCSKPGIVFITKRGHSVCTNPSDKWVQDYIKDMKEN
notes: Purified from human hemofiltrate or made by tryptic digestion of HCC-1 (1-74)
B9: RANTES (ligand, UniProt P13501 24-91, looked up)
chain: SPYSSDTTPCCFAYIARPLPRAHIKEYFYTSGKCSNPAVVFVTRKNRQVCANPEKKWVREYINSLEMS
modifications: ends and bridges not checked; also: 125I-labelled where used as tracer, unlabelled in functional assays

How the values were obtained:
[1] = target: T2, chemokine receptor 5 (CCR5) (human, UniProt P51681 1-352); assay: cell-based or functional assay
T2 sequence (P51681 whole entry): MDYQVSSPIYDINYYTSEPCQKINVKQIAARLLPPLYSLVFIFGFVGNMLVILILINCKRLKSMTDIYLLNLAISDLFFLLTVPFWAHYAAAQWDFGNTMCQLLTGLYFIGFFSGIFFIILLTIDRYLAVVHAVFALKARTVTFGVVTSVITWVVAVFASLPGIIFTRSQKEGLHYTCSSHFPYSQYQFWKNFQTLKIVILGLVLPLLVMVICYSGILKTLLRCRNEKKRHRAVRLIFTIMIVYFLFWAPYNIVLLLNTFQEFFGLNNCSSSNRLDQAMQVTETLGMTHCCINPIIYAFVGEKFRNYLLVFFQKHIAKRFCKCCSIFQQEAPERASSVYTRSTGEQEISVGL

[2] = target: T2, chemokine receptor 5 (CCR5); assay: competition radioligand binding, membranes of CHO-K1 cells expressing CCR5, tracer [125I]-MIP-1 beta; mean ± SEM
[3] = target: T2, chemokine receptor 5 (CCR5); assay: competition radioligand binding, membranes of CHO-K1 cells expressing CCR5, tracer [125I]-MIP-1 beta
[4] = target: T2, chemokine receptor 5 (CCR5); assay: cell-based or functional assay; remark: listed apart in the source
[5] = target: T2, chemokine receptor 5 (CCR5); assay: competition radioligand binding, membranes of CHO-K1 cells expressing CCR5, tracer [125I]-MIP-1 beta; remark: listed apart in the source
[6] = target: T2, chemokine receptor 5 (CCR5); assay: cell-based or functional assay; remark: listed apart in the source
chemokine receptor CCR3 [7] = target: T1, chemokine receptor CCR3; assay: competition with 125I-Eotaxin for binding to CCR3
Method: (§1) For determination of its binding properties, CHO-K1 cells were used which were stably transfected with the chemokine receptors CCR1, CCR3, CCR5. Therefore, crude membrane extracts prepared from the CHO-K1 cell lines expressing the various GPC were used in radioligand binding assays. Competition binding assays were performed in Minisorp tubes (Nunc, Roskilde, Denmark) in a total volume of 100 μl containing 0.11 nM iodinated ligand as tracer, variable concentrations of competitors and defined amount of membranes. Total binding was measured in the absence of competitor and non-specific binding was measured with a 100-fold excess, of unlabelled ligand. Samples were incubated for 90 minutes at 25° C. then filtered through GF/B filters presoaked in 0.3% polyethylenenimine. Filters were counted in a gamma scintillation counter (Packard). Binding parameters were determined with the PRISM software (Graphpad software, San Diego, Calif.) using non-linear regression applied to a one site competition model.

chemokine receptor CCR3 [8] = target: T1, chemokine receptor CCR3; assay: cell-based or functional assay
chemokine receptor CCR3 [9] = target: T1, chemokine receptor CCR3; assay: competition with 125I-Eotaxin, membranes of CHO-K1 cells expressing CCR3, filtration, one site competition model; 125I-Eotaxin tracer, CCR3 membranes
Method: as §1

[10] = target: T2, chemokine receptor 5 (CCR5); assay: competition with 125I-MIP-1 alpha for binding to CCR5
Method: as §1

[11] = target: T2, chemokine receptor 5 (CCR5); assay: competition with 125I-MIP-1 alpha, membranes of CHO-K1 cells expressing CCR5, filtration, one site competition model; 125I-MIP 1-alpha tracer, CCR5 membranes
Method: as §1

| Binder | EC50 (aequorin luminescence, CHO-K1 cells expressing CCR5) [1] | IC50 [2] | IC50 (read off the curve) [3] | EC50 (read off the curve) [4] | IC50 (read off the curve) [5] | EC50 (read off the curve) [6] | also measured |
| --- | --- | --- | --- | --- | --- | --- | --- |
| B1 | 402 nM | 21.6 nM | ~20 nM |  |  |  |  |
| B2 | 3.48 nM | 0.065 nM | ~0.1 nM | ~6 nM | ~0.1 nM | ~6 nM |  |
| B3 | 0.453 nM | 0.0343 nM |  |  | ~0.04 nM | ~1 nM |  |
| B4 | 165 nM | 7.72 nM |  |  |  |  |  |
| B5 |  | 4.29 nM |  |  |  |  |  |
| B6 | 224 nM | 1.2 nM |  |  |  |  |  |
| B7 | 177 nM | 5.9 nM |  |  |  |  |  |
| B8 | 6.45 nM | 0.0961 nM | ~0.1 nM | ~7 nM | ~0.1 nM | ~7 nM | Ki (chemokine receptor CCR3 [7]): 2.7 nM; EC50 of receptor activation (aequorin assay) (chemokine receptor CCR3 [8]): 78 nM; IC50 (chemokine receptor CCR3 [9]): 2.7 nM; Ki [10]: 0.04 nM; IC50 [11]: 0.04 nM |
| B9 | 8.48 nM |  |  | ~10 nM |  | ~10 nM |  |
